Publication PMC10720262 (2023)

The binders below were run against PfCSP full length (Plasmodium falciparum (isolate NF54), UniProt P19597) (assay: ELISA AUC).
Sequence of PfCSP full length (P19597 20-375): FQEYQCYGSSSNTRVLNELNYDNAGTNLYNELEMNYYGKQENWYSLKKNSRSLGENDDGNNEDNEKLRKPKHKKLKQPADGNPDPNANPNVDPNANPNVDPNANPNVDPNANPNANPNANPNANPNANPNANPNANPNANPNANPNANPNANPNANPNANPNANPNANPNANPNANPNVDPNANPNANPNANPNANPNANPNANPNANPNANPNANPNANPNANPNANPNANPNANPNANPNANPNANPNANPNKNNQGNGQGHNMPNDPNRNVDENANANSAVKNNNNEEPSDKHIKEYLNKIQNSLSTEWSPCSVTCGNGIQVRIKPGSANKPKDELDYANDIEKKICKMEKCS

| Binder | binding score |
| --- | --- |
| CL-441734 (antibody, V domains shown, peptides N-terminally acetylated and C-terminally amidated) VH: QVQLVESGGGVVQPGRSLRLSCAASGFTFSSHGMHWVRQAPVKGLEWVAVIWYDGSNKYYADSVKGRFTISRDNSKNTLYLQMNSLRAEDTAVYYCARVEYSRSSGDYYYYGLDVWGQGTTVTVSS VL: EIVMTQSPATLSVSPGERATLSCRASQSVSSNLAWYQQKPGQAPRLLIYGASTRATGIPARFSGSGSGTEFTLTISSLQSEDFAVYYCQQYDNWWTFGQGTKVEIK | 2.3 |
| CL-462911 (antibody, V domains shown, peptides N-terminally acetylated and C-terminally amidated) VH: QVHLVESGGGVVQPGRSLTLSCAASGFTFSSCGMHWVRQAPGKGLEWLAVIWYDGSNKYYADSVKGRFTISRDNSKNTLYLQMNSLRAEDTAVYYCARDGGYVRDYYYGMDVWGQGTTVTVSS VL: not shown | 1.4 |
| CL-510453 (antibody, V domains shown, peptides N-terminally acetylated and C-terminally amidated) VH: QVQLVESGGGVVQPGRSLRLSCAASGFTFSSYGMHWVRQAPDKGLEWVAIIWYDGSKKYYADSVKGRFTVSRDNSKNTLYLQMNSLRAEDTAVFYCARSFDYESGGFYSFDYWGQGTLVSVSS VL: DIQMTQSPSTLSASVGDRVTITCRASQSISSWLAWYQQKPGKAPKLLIYRASSLASGVPSRFSGSGSGTEFTLTISSLQPDDFATYYCQQYNSYWTFGQGTKVEFK | 2.07 |
| CL-513279 (antibody, V domains shown, peptides N-terminally acetylated and C-terminally amidated) VH: QVQLVESGGGVVQPGRSLRLSCAASGFTFSNFGMHWVRQAPVKGLEWVALIWYDGSNKFYADSVQGRFTISRDNSKNILYLQMNSLRAEDTAVYYCAKVEARGVDYHSYGMDVWGQGTTVTVSS VL: DIQMTQSPSTLSASVGDRVTITCRASQSISSWLAWYQQKPGKAPQLLIYKASSLESGVPSRFSGSGSGTEFTLTISSLQPDDFATYYCQQYKYYWTFGQGTKVEIK | 2.06 |
| CL-510700 (antibody, V domains shown, peptides N-terminally acetylated and C-terminally amidated) VH: QVQLVESGGGVVQPGRSLRLSCAASGFTFSDFGMHWVRQTPGKGLEWVAIIWYDGSNKFYADSVKGRFTISRDNSKNTLFLQMNSLRAEDTAVYYCARSGVYYGSGSHFDYWGQGTLVTVSS VL: DIQMTQSPSTLSASVGDRVTITCRASQSISSWLAWYQLKPGKAPKLLIYKASNLETGVPLRFSGSGSGTEFTLTISSLQPDDFATYYCQQYNSYLTFGQGTKVEIK | 1.9 |
| CL-449724 (antibody, V domains shown, peptides N-terminally acetylated and C-terminally amidated) VH: QVHLVASGGGVVQPGRSLRLSCEVTGFTFSSYGMHWVRQDPGRGLEWVAIIWYDGSNKFYADSVKGRFTISRDNSKNTLYLQMNSLRAEDTAVYYCARSYGILTGYQTKYGMDVWGQGTTVTVSS VL: not shown | 2.5 |
| CL-509177 (antibody, V domains shown, peptides N-terminally acetylated and C-terminally amidated) VH: QVQLVESGGGVVQPGRSLRLSCAASGFSFSSYGMHWVRQTPGKGLEWVAIIWYDGSNKFYADSVKGRFIISRDNSKNTLYLQMNSLRAEDTAVYYCARDGGYSTSAGDFDYWGQGTLVTVSS VL: EIVLTQSPGTLSLSPGERATLSCRASQSVSSSYLAWYQQKPGQAPRLLIYGASSRATGIPDRFSGRGSGTDFTLTISRLEPEDFAVYYCQQYVSSFTFGPGTKVDIN | 1.17 |
| CL-447376 (antibody, V domains shown, peptides N-terminally acetylated and C-terminally amidated) VH: QVQLVESGGGVVQPGRSLRLSCAASGFNFNNYGMHWVRQAPVMGLEWVAIIWYDGSNKFYADSVKGRFTISRDNSQNTLFLQMNSLRAEDTGIYYCARSGGEMGNFDYWGQGTLVTVSS VL: DIVMTQSPLSLPVTLGQPASISCRSSQSLVYSNGDTYLDWFQLRPGQSPRRLIYKVSHRDSGVPDRFSGSGSGTEFTLRISRVEAEDVGIYYCMQGTHYWTFGQGTEVEIK | 2.5 |
| CL-510632 (antibody, V domains shown, peptides N-terminally acetylated and C-terminally amidated) VH: QVQLVESGGGVVQPGRSLRLSCAASGFTFSNYGMHWVRQAPGKGLEWVAVIWYDGSNKFYADSVKGRFTISRDNSKNTLYLQTNSLRAEDTAVYYCARVYYYDSGNYLDYWGQGTLVAVSS VL: DIQMTQSPSSVSASVGDRVTITCRASQGINNCLAWYQQKPGKAPKLLIYAASSLQSGVPSRFSGSGSGTDFTLTISNLQPEDFATYCCQQANSFPWTFGQGTKVEIK | 1.9 |
